Source: IntAct's records for PubMed 17641687

B1: Kinesin-like protein KIF16B (Homo sapiens), Q96L93 (parent)
chain: MASVKVAVRVRPMNRREKDLEAKFIIQMEKSKTTITNLKIPEGGTGDSGRERTKTFTYDFSFYSADTKSPDYVSQEMVFKTLGTDVVKSAFEGYNACVFAYGQTGSGKSYTMMGNSGDSGLIPRICEGLFSRINETTRWDEASFRTEVSYLEIYNERVRDLLRRKSSKTFNLRVREHPKEGPYVEDLSKHLVQNYGDVEELMDAGNINRTTAATGMNDVSSRSHAIFTIKFTQAKFDSEMPCETVSKIHLVDLAGSERADATGATGVRLKEGGNINKSLVTLGNVISALADLSQDAANTLAKKKQVFVPYRDSVLTWLLKDSLGGNSKTIMIATISPADVNYGETLSTLRYANRAKNIINKPTINEDANVKLIRELRAEIARLKTLLAQGNQIALLDSPTALSMEEKLQQNEARVQELTKEWTNKWNETQNILKEQTLALRKEGIGVVLDSELPHLIGIDDDLLSTGIILYHLKEGQTYVGRDDASTEQDIVLHGLDLESEHCIFENIGGTVTLIPLSGSQCSVNGVQIVEATHLNQGAVILLGRTNMFRFNHPKEAAKLREKRKSGLLSSFSLSMTDLSKSRENLSAVMLYNPGLEFERQQREELEKLESKRKLIEEMEEKQKSDKAELERMQQEVETQRKETEIVQLQIRKQEESLKRRSFHIENKLKDLLAEKEKFEEERLREQQEIELQKKRQEEETFLRVQEELQRLKELNNNEKAEKFQIFQELDQLQKEKDEQYAKLELEKKRLEEQEKEQVMLVAHLEEQLREKQEMIQLLRRGEVQWVEEEKRDLEGIRESLLRVKEARAGGDEDGEELEKAQLRFFEFKRRQLVKLVNLEKDLVQQKDILKKEVQEEQEILECLKCEHDKESRLLEKHDESVTDVTEVPQDFEKIKPVEYRLQYKERQLQYLLQNHLPTLLEEKQRAFEILDRGPLSLDNTLYQVEKEMEEKEEQLAQYQANANQLQKLQATFEFTANIARQEEKVRKKEKEILESREKQQREALERALARLERRHSALQRHSTLGMEIEEQRQKLASLNSGSREQSGLQASLEAEQEALEKDQERLEYEIQQLKQKIYEVDGVQKDHHGTLEGKVASSSLPVSAEKSHLVPLMDARINAYIEEEVQRRLQDLHRVISEGCSTSADTMKDNEKLHNGTIQRKLKYERMVSRSLGANPDDLKDPIKISIPRYVLCGQGKDAHFEFEVKITVLDETWTVFRRYSRFREMHKTLKLKYAELAALEFPPKKLFGNKDERVIAERRSHLEKYLRDFFSVMLQSATSPLHINKVGLTLSKHTICEFSPFFKKGVFDYSSHGTG

Variants of: B1
Conditions: with eea1_human EEA1, Q15075
eea1_human EEA1, Q15075, sequence (Q15075 whole entry): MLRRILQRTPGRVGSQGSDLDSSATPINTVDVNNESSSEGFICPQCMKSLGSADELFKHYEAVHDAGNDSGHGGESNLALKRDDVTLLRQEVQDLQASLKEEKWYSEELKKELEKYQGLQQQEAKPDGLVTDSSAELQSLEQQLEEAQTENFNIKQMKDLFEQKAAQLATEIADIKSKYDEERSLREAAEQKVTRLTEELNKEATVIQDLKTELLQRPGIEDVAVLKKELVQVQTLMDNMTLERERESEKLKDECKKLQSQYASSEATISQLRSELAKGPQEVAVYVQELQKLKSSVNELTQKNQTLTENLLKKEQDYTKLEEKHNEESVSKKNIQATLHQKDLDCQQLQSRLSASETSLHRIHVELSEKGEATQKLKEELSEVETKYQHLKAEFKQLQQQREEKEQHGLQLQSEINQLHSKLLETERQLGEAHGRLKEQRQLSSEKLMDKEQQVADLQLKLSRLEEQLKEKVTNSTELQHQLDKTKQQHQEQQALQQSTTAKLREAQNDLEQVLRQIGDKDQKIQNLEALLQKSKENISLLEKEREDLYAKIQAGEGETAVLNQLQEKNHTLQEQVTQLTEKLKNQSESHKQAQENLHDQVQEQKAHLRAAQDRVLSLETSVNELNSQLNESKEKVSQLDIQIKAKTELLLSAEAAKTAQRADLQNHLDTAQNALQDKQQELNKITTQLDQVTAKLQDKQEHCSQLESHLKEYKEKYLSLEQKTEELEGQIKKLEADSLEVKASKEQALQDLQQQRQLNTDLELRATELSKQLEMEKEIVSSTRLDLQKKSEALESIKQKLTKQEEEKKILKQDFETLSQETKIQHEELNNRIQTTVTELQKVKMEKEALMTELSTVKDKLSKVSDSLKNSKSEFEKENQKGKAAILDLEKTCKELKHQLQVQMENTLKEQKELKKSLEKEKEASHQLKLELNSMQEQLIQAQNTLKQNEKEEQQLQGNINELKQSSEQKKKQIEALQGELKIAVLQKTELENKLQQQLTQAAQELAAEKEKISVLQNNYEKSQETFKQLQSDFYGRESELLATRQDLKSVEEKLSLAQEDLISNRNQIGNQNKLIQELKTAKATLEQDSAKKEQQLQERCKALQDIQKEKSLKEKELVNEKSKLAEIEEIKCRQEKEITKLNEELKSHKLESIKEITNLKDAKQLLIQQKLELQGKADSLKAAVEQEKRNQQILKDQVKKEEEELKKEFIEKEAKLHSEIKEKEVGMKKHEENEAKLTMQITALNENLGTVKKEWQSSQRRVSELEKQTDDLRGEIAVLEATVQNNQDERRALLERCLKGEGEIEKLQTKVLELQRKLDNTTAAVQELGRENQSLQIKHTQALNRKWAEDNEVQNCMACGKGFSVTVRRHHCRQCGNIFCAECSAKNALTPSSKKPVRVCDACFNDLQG

effect of a mutation on the interaction | Variant
disrupting interaction | F1249A
disrupting interaction | L1248A
